Patent publication US20050182242A1, “Global analysis of protein activities using proteome chips” (priority 2001, published 2005)

Experiments:
Conditions in all cases: liposome binding signal on yeast proteome chip, Cy3-streptavidin detection
[1] = tested on: PI(4)P liposomes; test: Yeast proteome chip probed with PI(4)P liposomes
[2] = tested on: phosphatidylcholine (PC) liposomes; test: Yeast proteome chip probed with PC liposomes
Procedure, shortened: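 Binding detected by fluorescent streptavidin (Cy3 or Cy5, >30 min in the dark at RT) recognizing biotin-DHPE (1% w/w) in PC liposomes, which carried 5% (w/w) of the named phosphoinositide unless PC-only. Liposomes, made by sonication in TBS, were applied to blocked chips for 1 h at RT, then washed in PBS.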

[3] = tested on: PI(3,4)P2 liposomes; test: Yeast proteome chip probed with PI(3,4)P2 liposomes
[4] = tested on: PI(3)P liposomes; test: Yeast proteome chip probed with PI(3)P liposomes
Excerpt: To identify PI-binding proteins in yeast, liposomes were used as probes because the liposome provides the most relevant physiological condition to assay the interactors. Six types of liposomes were used. Each contains phosphatidylcholine (“PC”) with 1% (w/w) N-(biotinoyl)-1,2-dihexadecanoyl-sn-glycero-3-phosphoethanolamine, triethylammonium salt (biotin DHPE). The biotinylated lipid serves as a label that can be detected by Cy3-streptavidin (21). In addition to PC, the five other liposomes contain either 5% (w/w) PI(3)P, PI(4)P, PI(3,4)P2, PI(4,5)P2, or PI(3,4,5)P3 (FIG. 3A).
The protein-liposome interaction was assayed as follows. Appropriate amounts of each lipid in chloroform were mixed and dried under nitrogen. The lipid mixture was resuspended in TBS buffer by vortexing. The liposomes were created by sonication. Blocked proteome chips were washed three to five times in PBS buffer, and the extra liquid on the glass surface was removed by tapping the slides vertically on a KIMWIPE™. 200 μl of liposome solution was added to the proteome chip and immediately covered by a hydrophobic plastic cover slip (GRACE BIO-LAB™, USA). After trapped air bubbles were removed, the chip was incubated in a humidity chamber at RT for one hour. To remove the cover slip, the chip was immersed into large volume of PBS buffer (50 ml), so that the slip would float away. The chip was then moved to a second PBS bath (>50 ml) and washed 3×5 min with shaking at RT. After removing extra liquid on the surface of the chip, about 100 μl of Cy3 or Cy5 conjugated streptavidin (PIERCE™, USA; 1:2000 to 1:4000 dilution) was added to the surface and covered by a hydrophobic plastic cover slip (GRACE BIO-LABS™, USA). The chip was incubated for greater than 30 min in the dark at RT. The chip was then washed as described above. To completely remove the liquid on the chip, the chip was spun to dryness at 1500-2000 rpm for 5-10 min at RT.
• 1. S. Fields, Y. Kohara, D. J. Lockhart, Proc. Natl. Acad. Sci. 96, 8825 (1999); A. Goffeau et al., Science 274, 563 (1996). • 2 P. Ross-Macdonald et al., Nature 402, 413 (1999); J. L., DeRisi, V. R. Iyer, P. O. Brown, Science 278, 680 (1997); E. A. Winzeler et al., Science 285, 901 (1999). P. Uetz et al., Nature 403, 623 (2000); T. Ito et al., Proc. Natl. Acad. Sci. USA. 97, 1143 (2000) • 3 H. Zhu, M. Snyder, Curr. Opin. Chem. Biol. 5, 40 (2001). • 4 M. R. Martzen et al., Science 286, 1153 (1999). • 5 H. Zhu et al., Nat. Genet. 26, 283 (2000). • 6 G. MacBeath, S. L. Schreiber, Science 289, 1760 (2000). • 7 A. Caveman, J. Cell Sci. 113, 3543 (2000). • 8 P. Arenkov et al., Anal. Biochem 278, 123 (2000). • 9 D. A. Mitchell, T. K. Marshall, R. J. Deschenes, Yeast 9, 715 (1993). The expression vector pEGH was created by inserting an RGS-HisX6 epitope tag between the GST gene and the polycloning site of pEG(KG). The yeast ORFs were cloned using the strategy described previously (5), except every step was done in a 96-well format. Plasmid DNAs confirmed by DNA sequencing were reintroduced into both yeast (Y258) and E. coli (DH5a). […] 0.1 mM calcium was present in buffers in all subsequent steps. The chip was washed three times with PBS at RT. Cy3-conjugated streptavidin (Jackson IR, USA) (1:5000 dilution) was added to the chip and incubated for 30 min at RT. After extensive washing, the chip was spun dry and scanned using a microarray scanner; the data was subsequently acquired with the GENEPIX™ array densitometry software (Axon, USA). • 12 S. S. Hook, A. R. Means, Annu. Rev. Pharmacol. Toxicol.41, 471 (2001). • 13 M. S. Cyert, R. Kunisawa, D. Kaim, J. Thorner, Proc. Natl. Acad. Sci. USA 88, 7376 (1991). • 14 D. A. Stirling, K. A. Welch, M. J. Stark, EMBO J. 13, 4329 (1994). • 15 F. Bohl, Kruse, EMBO J. 19, 5514 (2000); E. Bertrand et al., Mol. Cell 2, 437 (1998). • 16 D. C. Winter, E. Y. Choe, R. Li, Proc. Nat. Acad Sci. USA 96, 7288 (1999). • 17 C.

[5] = tested on: PI(3,4,5)P3 liposomes; test: Yeast proteome chip probed with PI(3,4,5)P3 liposomes
[6] = tested on: PI(4,5)P2 liposomes; test: Yeast proteome chip probed with PI(4,5)P2 liposomes

| Molecule | PI(4)P [1] | PC [2] | PI(3, 4)P2 [3] | PI(3)P [4] | PI(3, 4, 5)P3 [5] | PI(4, 5)P2 [6] |
| --- | --- | --- | --- | --- | --- | --- |
| HEM14: yeast GST-HisX6 fusion protein on proteome chip (protein, UniProt P40012 1-539, looked up, GST-HisX6 tag, yeast GST-HisX6 fusion protein on proteome chip) Protoporphyrinogen oxidase: MLLPLTKLKPRAKVAVVGGGVSGLCFTYFLSKLRPDVEITLFESQNRTGGWIYSCNTRDMSGNPIMLEKGPRTLRGVSDGTVLIMDTLKDLGKEAVIQSIDKGCIADKKFLLDPSDKLVQVPNSISTTVKFLLNPLGKGLITGMMGEWFRKKSPHPGQDESVESICDRRFGNNYISNNMISALLRGIYGDDVSLLSAKRTFKKIYYNELKHGSNTQAMIDNMRGKSRSKKTENLHQSLTGCLNDYSNAFGKDRSKLLDLSNTLKKYPMLGLAGGLETFPKIVRNALNEFKNVKIVTGNPVTQIMKRPANETTIGLKAKSGDQYETFDHLRLTITPPKIAKLLPKDQNSLSKLLDEIQSNTIILVNYYLPNKDVIDADLQGFGYLVPKSNKNPGKLLGVIFDSVIERNFKPLFDKLSTNPNALNKYTKVTAMIGGCMLNEHGVPVVPSREVTINAVKDALNNHLGISNKDLEAGQWEFTIADRCLPRFHVGYDAWQERAERKLQESYGQTVSVGGMGFSRSPGVPDVIVDGFNDALQLSK | 16.11 | 38.15 | 21.03 | 1.00 | 8.55 | – |
| KCS1: yeast GST-HisX6 fusion protein on proteome chip (protein, UniProt Q12494 1-1050, looked up, GST-HisX6 tag, yeast GST-HisX6 fusion protein on proteome chip) Inositol hexakisphosphate …: MDTSHEIHDKIPDTLREQQQHLRQKESEGCITTLKDLNVPETKKLSSVLHGRKASTYLRIFRDDECLADNNNGVDSNNGGSVTCADKITRSEATPKSVPEGLQVSEKKNNPDTLSSSLSSFILSNHEEPAIKPNKHVAHRNNITETGQGSGEDIAKQQSHQPQVLHHQTSLKPIQNVDEGCISPKSTYQESLHGISEDLTLKPVSSATYYPHKSKADSGYEEKDKMENDIDTIQPATINCASGIATLPSSYNRHTFKVKTYSTLSQSLRQENVNNRSNEKKPQQFVPHSESIKEKPNTFEQDKEGEQADEEEDEGDNEHREYPLAVELKPFTNRVGGHTAIFRFSKRAVCKALVNRENRWYENIELCHKELLQFMPRYIGVLNVRQHFQSKDDFLSDLDQENNGKNDTSNENKDIEVNHNNNDDIALNTEPTGTPLTHIHSFPLEHSSRQVLEKEHPEIESVHPHVKRSLSSSNQPSLLPEVVLNDNRHIIPESLWYKYSDSPNSAPNDSYFSSSSSHNSCSFGERGNTNKLKRRDSGSTMINTELKNLVIREVFAPKCFRRKRNSNTTTMGNHNARLGSSPSFLTQKSRASSHDASNTSMKTLGDSSSQASLQMDDSKVNPNLQDPFLKKSLHEKISNALDGSHSVMDLKQFHKNEQIKHKNSFCNSLSPILTATNSRDDGEFATSPNYISNAQDGVFDMDEDTGNETINMDNHGCHLDSGKNMIIKSLAYNVSNDYSHHDIESITFEETSHTIVSKFILLEDLTRNMNKPCALDLKMGTRQYGVDAKRAKQLSQRAKCLKTTSRRLGVRICGLKVWNKDYYITRDKYFGRRVKVGWQFARVLARFLYDGKTIESLIRQIPRLIKQLDTLYSEIFNLKGYRLYGASLLLMYDGDANKSNSKRKKAANVKVNLIDFARCVTKEDAMECMDKFRIPPKSPNIEDKGFLRGVKSLRFYLLLIWNYLTSDMPLIFDEVEMNDMISEEADSNSFTSATGSKINFNSKWDWLDEFDKEDEEMYNDPNSKLRQKWRKYELIFDAEPRYNDDAQVSD | 35.27 | 42.85 | 60.91 | 0.00 | 36.22 | – |
| GAD1: yeast GST-HisX6 fusion protein on proteome chip (protein, UniProt Q04792 1-585, looked up, GST-His6 tag, yeast GST-HisX6 fusion protein on proteome chip) Glutamate decarboxylase: MLHRHGSKQKNFENIAGKVVHDLAGLQLLSNDVQKSAVQSGHQGSNNMRDTSSQGMANKYSVPKKGLPADLSYQLIHNELTLDGNPHLNLASFVNTFTTDQARKLIDENLTKNLADNDEYPQLIELTQRCISMLAQLWHANPDEEPIGCATTGSSEAIMLGGLAMKKRWEHRMKNAGKDASKPNIIMSSACQVALEKFTRYFEVECRLVPVSHRSHHMLDPESLWDYVDENTIGCFVILGTTYTGHLENVEKVADVLSQIEAKHPDWSNTDIPIHADGASGGFIIPFGFEKEHMKAYGMERWGFNHPRVVSMNTSGHKFGLTTPGLGWVLWRDESLLADELRFKLKYLGGVEETFGLNFSRPGFQVVHQYFNFVSLGHSGYRTQFQNSLFVARAFSFELLNSSKLPGCFEIVSSIHESIENDSAPKSVKDYWEHPQAYKPGVPLVAFKLSKKFHEEYPEVPQAILSSLLRGRGWIIPNYPLPKATDGSDEKEVLRVVFRSEMKLDLAQLLIVDIESILTKLIHSYEKVCHHIELASEQTPERKSSFIYEMLLALASPQDDIPTPDEIEKKNKLKETTTRNYRGTC | −1.96 | 24.36 | – | 51.25 | – | 11.54 |
| MIS1: yeast GST-HisX6 fusion protein on proteome chip (protein, UniProt P09440 35-975, looked up, GST-His6 fusion tag, yeast GST-HisX6 fusion protein on proteome chip) C-1-tetrahydrofolate …: YHILSGRKLAQSIREKANDEIQAIKLKHPNFKPTLKIIQVGARPDSSTYVRMKLKASKDSNVDCIIEKLPAEITEVELLKKISDINDDDSIHGLLIQLPLPRHLDETTITNAVDFKKDVDGFHRYNAGELAKKGGKPYFIPCTPYGCMKLLEEAHVKLDGKNAVVLGRSSIVGNPIASLLKNANATVTVCHSHTRNIAEVVSQADIVIAACGIPQYVKSDWIKEGAVVIDVGINYVPDISKKSGQKLVGDVDFDSVKEKTSYITPVPGGVGPMTVAMLVSNVLLAAKRQFVESEKLPVIKPLPLHLESPVPSDIDISRAQSPKHIKQVAEELGIHSHELELYGHYKAKISPNIFKRLESRENGKYVLVAGITPTPLGEGKSTTTMGLVQALSAHLGKPSIANVRQPSLGPTLGVKGGAAGGGYAQVIPMDEFNLHLTGDIHAISAANNLLAAAIDTRMFHEATQKNDSTFYKRLVPRKKGIRKFTPSMQRRLKRLDIEKEDPDALTPEEVKRFARLNINPDTITIRRVVDINDRMLRQITIGEAATEKGFTRTTGFDITVASELMAILALSKSLHEMKERIGRMVIGADYDNKPVTVEDIGCTGALTALLRDAIKPNLMQTLEGTPVMVHAGPFANISIGASSVIADLMALKLVGSEKNPLNDKNIHEPGYVVTEAGFDFAMGGERFFDIKCRSSGLVPDAVVLVATVRALKSHGGAPNVKPGQSLPKEYTEENIDFVAKGVSNLVKQIENIKTFGIPVVVAINRFETDSQAEIEVIKKAALNAGASHAVTSNHWMEGGKGAVELAHAVVDATKEPKNFNFLYDVNSSIEDKLTSIVQKMYGGAKIEVSPEAQKKIDTYKKQGFGNLPICIAKTQYSLSHDPSLKGVPRGFTFPIRDVRASIGAGYLYALAAEIQTIPGLSTYAGYMAVEVDDDGEIEGLF | 65.32 | 71.02 | 86.34 | 3.50 | 43.65 | – |
